One may read the Kd as a measure of binding affinity in units of concentration.

One experiment has as its target HLA-B*45:01. Put plainly: IEDB peptide-MHC binding, purified MHC/competitive/radioactivity; filed as Kd, often an IC50 or EC50 that approximates it; ≥ and ≤ were set here for values at or beyond the usual limits of such assays.
Experiment [1] addresses HLA-B*18:01. The experiment is described as above.
Experiment [2] concerns the target HLA-B*40:01. The experiment is described as above.
Experiment [3] has as its target HLA-B*44:02. Described as above.
The target in a further experiment is HLA-B*40:02. The description is as above.
For another experiment, the target named is HLA-B*44:03. The description is as above.
For the next experiment, the target named is HLA-B*53:01. Described as above. The settings on record: source organism: Dengue virus 4 Philippines/H241/1956.
Experiment [4] deals with HLA-B*57:01. The description is as above.
In experiment [5] the target is HLA-A*01:01. Put plainly: IEDB peptide-MHC binding, purified MHC/direct/fluorescence; filed as Kd, often an IC50 or EC50 that approximates it; ≥ and ≤ were set here for values at or beyond the usual limits of such assays.
A further experiment addresses HLA-B*27:05. The description is as above.
For a further experiment, the target named is HLA-B*58:01. The description is as above.
The target in another experiment is HLA-A*69:01. The experiment is described as above.
In experiment [6] the target is HLA-B*44:02. The experiment is described as above.
The target in a further experiment is HLA-A*02:01. Described as above.
The next experiment concerns the target HLA-A*11:01. Described as above.
The target in a further experiment is HLA-B*07:02. The experiment is described as above.
In another experiment the target is HLA-A*31:01. Described as above.
Another experiment addresses HLA-A*03:01. Described as above.
In experiment [7] the target is HLA-B*46:01. The description is as above.
Another experiment has as its target HLA-B*48:01. Described as above.
The target in another experiment is HLA-B*08:01. Described as above. The settings on record: source organism: Mammarenavirus brazilense.
A further experiment concerns the target HLA-B*15:01. Described as above.
Experiment [8] has as its target HLA-B*57:01. Described as above.
The target of experiment [9] is HLA-A*01:01. Put plainly: IEDB peptide-MHC binding, purified MHC/competitive/radioactivity; filed as Kd, often an IC50 or EC50 that approximates it; ≥ and ≤ were set here for values at or beyond the usual limits of such assays.
Another experiment concerns the target HLA-A*26:01. The description is as above. The settings on record: source organism: Dengue virus 2 Jamaica/1409/1983.
For experiment [10], the target named is HLA-B*46:01. Put plainly: IEDB peptide-MHC binding, purified MHC/competitive/fluorescence; filed as Kd, often an IC50 or EC50 that approximates it; ≥ and ≤ were set here for values at or beyond the usual limits of such assays.
The target of experiment [11] is HLA-B*18:01. Put plainly: IEDB peptide-MHC binding, purified MHC/direct/fluorescence; filed as Kd, often an IC50 or EC50 that approximates it; ≥ and ≤ were set here for values at or beyond the usual limits of such assays.
The target of experiment [12] is HLA-B*40:01. Described as above. The settings on record: source organism: West Nile virus.
[13] abbreviates: source organism: Lymphocytic choriomeningitis virus (strain Armstrong).
Where [14] appears, read: source organism: SARS coronavirus Tor2.
The mark [15] stands for this setting: source organism: Dengue virus 4 Philippines/H241/1956.
Where [16] appears, read: source organism: Mammarenavirus brazilense.
Where [17] appears, read: source organism: Dengue virus 2 Jamaica/1409/1983.
[18] abbreviates: source organism: Mammarenavirus machupoense.
The mark [19] stands for this setting: source organism: Yellow fever virus.
The mark [20] stands for this setting: source organism: Dengue virus 3 Martinique/1243/1999.
The mark [21] stands for this setting: source organism: West Nile virus.

On to ADSDDILTL, for which the Kd with HLA-B*45:01 (setting [13]) was no less than 77.7 µM; with HLA-B*18:01 [1] (setting [13]), no less than 77.5 µM; with HLA-B*40:01 [2] (setting [13]), no less than 26.9 µM; with HLA-B*44:02 [3] (setting [13]), no less than 20.8 µM; with HLA-B*40:02 (setting [13]), no less than 22.2 µM; in the experiment with HLA-B*44:03 (setting [13]), 6.06 µM.

With AEIVDTVSAL, the Kd is 0.287 µM with HLA-B*45:01 (setting [14]); no less than 23.1 µM in the experiment with HLA-B*18:01 [1] (setting [14]); 0.00114 µM with HLA-B*40:01 [2] (setting [14]); 0.0864 µM with HLA-B*44:02 [3] (setting [14]); 2.57 µM in the experiment with HLA-B*40:02 (setting [14]); 0.105 µM with HLA-B*44:03 (setting [14]).

Turning to EAVNDSRFW, the Kd with HLA-B*53:01 was 0.0132 µM; in the experiment with HLA-B*57:01 [4] (setting [15]), 1.26 µM.

In the case of EEAIRHVRAW, the Kd was 4.77 µM with HLA-B*45:01 (setting [14]); no less than 43.1 µM with HLA-B*18:01 [1] (setting [14]); no less than 69.6 µM in the experiment with HLA-B*40:01 [2] (setting [14]); 0.0073 µM with HLA-B*44:02 [3] (setting [14]); no less than 70.8 µM in the experiment with HLA-B*40:02 (setting [14]); 0.0142 µM with HLA-B*44:03 (setting [14]).

For the sequence EEHFVETVSL, the Kd with HLA-B*45:01 (setting [14]) came to 0.116 µM; with HLA-B*18:01 [1] (setting [14]), 1.04 µM; with HLA-B*40:01 [2] (setting [14]) it was 0.0092 µM; in the experiment with HLA-B*44:02 [3] (setting [14]), 0.44 µM; with HLA-B*40:02 (setting [14]), 0.0843 µM; in the experiment with HLA-B*44:03 (setting [14]) it was 0.143 µM.

For EETFKLSYGI, the Kd in the experiment with HLA-B*45:01 (setting [14]) came out at 2.54 µM; with HLA-B*18:01 [1] (setting [14]), 19.7 µM; with HLA-B*40:01 [2] (setting [14]), 3.58 µM; with HLA-B*44:02 [3] (setting [14]), 0.076 µM; with HLA-B*40:02 (setting [14]), 0.194 µM; with HLA-B*44:03 (setting [14]) it was 0.13 µM.

With EFKSRFFVM, the Kd with HLA-A*01:01 [5] (setting [16]), with HLA-B*27:05 (setting [16]), with HLA-B*58:01 (setting [16]), with HLA-A*69:01 (setting [16]), in the experiment with HLA-B*44:02 [6] (setting [16]) and with HLA-A*02:01 (setting [16]) was no less than 20 µM each time. Further, the Kd with HLA-A*11:01 (setting [16]), with HLA-B*07:02 (setting [16]), in the experiment with HLA-A*31:01 (setting [16]), with HLA-A*03:01 (setting [16]), in the experiment with HLA-B*46:01 [7] (setting [16]) and with HLA-B*48:01 (setting [16]) was no less than 20 µM throughout. Besides, the Kd in the experiment with HLA-B*08:01 was 0.364 µM; with HLA-B*15:01 (setting [16]), no less than 20 µM; with HLA-B*57:01 [8] (setting [16]) it was no less than 20 µM.

As to ETSWHYDQDH, the dissociation constant (Kd) is no less than 70.4 µM in the experiment with HLA-A*01:01 [9] (setting [17]), no less than 40.9 µM in the experiment with HLA-A*26:01 and 2.31 µM in the experiment with HLA-B*57:01 [4] (setting [17]).

For the sequence HECFVKRVDW, the Kd with HLA-B*45:01 (setting [14]) was no less than 33.8 µM; with HLA-B*18:01 [1] (setting [14]), 6.62 µM; with HLA-B*40:01 [2] (setting [14]), no less than 69.6 µM; with HLA-B*44:02 [3] (setting [14]) it was 0.302 µM; in the experiment with HLA-B*40:02 (setting [14]) it was 5.78 µM; with HLA-B*44:03 (setting [14]), 0.187 µM.

On to HEDLMAAYV, for which the Kd with HLA-B*45:01 (setting [14]) was 1.69 µM; with HLA-B*18:01 [1] (setting [14]), 3.91 µM; with HLA-B*40:01 [2] (setting [14]), 1.2 µM; with HLA-B*44:02 [3] (setting [14]), 7.08 µM; in the experiment with HLA-B*40:02 (setting [14]) it was 1.33 µM; in the experiment with HLA-B*44:03 (setting [14]) it was 5.06 µM.

On to IAFCNWAFV, for which the figures for the Kd with HLA-A*69:01 (source organism: Vibrio cholerae) and in the experiment with HLA-B*46:01 [10] (source organism: Vibrio cholerae 2740-80) were 0.06 µM and 4.36 µM, respectively.

IDYVPLKSAT: the Kd with HLA-B*45:01 (setting [14]) was 2.05 µM; with HLA-B*18:01 [1] (setting [14]) it was no less than 70.5 µM; with HLA-B*40:01 [2] (setting [14]) it was no less than 69.6 µM; with HLA-B*44:02 [3] (setting [14]) it was no less than 40 µM; with HLA-B*40:02 (setting [14]), no less than 50.6 µM; with HLA-B*44:03 (setting [14]) it was no less than 70.1 µM.

Consider ISRDIMDAY, for which, in the experiment with HLA-B*46:01 [10] (source organism: Bacillus cereus G9241), the Kd came out at 0.0416 µM.

Turning to KDMPGGYCL, the Kd was 18.2 µM with HLA-B*45:01 (setting [18]); no less than 38.9 µM in the experiment with HLA-B*18:01 [1] (setting [18]); 17.7 µM in the experiment with HLA-B*40:01 [2] (setting [18]); no less than 42.5 µM with HLA-B*44:02 [3] (setting [18]); 0.235 µM with HLA-B*40:02 (setting [18]); no less than 78.1 µM with HLA-B*44:03 (setting [18]).

As to KDYMSLSEQL, the Kd was no less than 70.5 µM in the experiment with HLA-B*18:01 [1] (setting [14]); 6.19 µM in the experiment with HLA-B*40:01 [2] (setting [14]); no less than 25.6 µM with HLA-B*44:02 [3] (setting [14]); 5.78 µM in the experiment with HLA-B*40:02 (setting [14]); no less than 29.6 µM with HLA-B*44:03 (setting [14]).

Turning to KELSPRWYF, the Kd with HLA-B*45:01 (setting [14]) was 6.01 µM; with HLA-B*18:01 [1] (setting [14]) it was 1.88 µM; with HLA-B*40:01 [2] (setting [14]) it was 0.889 µM; in the experiment with HLA-B*44:02 [3] (setting [14]) it was 0.0634 µM; in the experiment with HLA-B*40:02 (setting [14]), 0.0073 µM; with HLA-B*44:03 (setting [14]), 0.0528 µM.

In the case of KETLYRIDG, the Kd with HLA-B*45:01 (setting [14]) is no less than 24 µM; with HLA-B*18:01 [1] (setting [14]), no less than 77.5 µM; in the experiment with HLA-B*40:01 [2] (setting [14]), no less than 46 µM; in the experiment with HLA-B*44:02 [3] (setting [14]) it was no less than 57.7 µM; with HLA-B*40:02 (setting [14]) it was no less than 45.6 µM; in the experiment with HLA-B*44:03 (setting [14]) it was no less than 30.6 µM.

For PASIAARGYI, the Kd in the experiment with HLA-B*57:01 [4] (setting [17]) is 0.365 µM.

With RFSTSLLFLN, the Kd in the experiment with HLA-B*57:01 [4] (setting [15]) is 1.09 µM.

Take RTSKKRSWPL: the Kd with HLA-B*57:01 [4] (setting [17]) was found to be 0.69 µM.

SSARYDVAL: the Kd with HLA-A*01:01 [5] (setting [19]), with HLA-B*18:01 [11] (setting [19]), with HLA-B*27:05 (setting [19]), with HLA-B*58:01 (setting [19]), with HLA-B*44:02 [6] (setting [19]) and in the experiment with HLA-A*02:01 (setting [19]) was no less than 20 µM each time. Also, the Kd in the experiment with HLA-A*11:01 (setting [19]), with HLA-B*07:02 (source organism: Yellow fever virus 17D), in the experiment with HLA-A*31:01 (setting [19]), with HLA-A*03:01 (setting [19]), with HLA-B*46:01 [7] (setting [19]) and with HLA-B*57:01 [8] (setting [19]) was no less than 20 µM each time.

On to SSSMRKTDWL, for which the values for the Kd with HLA-A*01:01 [9] (setting [20]) and with HLA-B*57:01 [4] (setting [20]) were no less than 49.7 µM and 3.14 µM, respectively.

Consider STSQETWNRQ, for which the Kd in the experiment with HLA-B*57:01 [4] (source organism: Dengue virus 1 Brazil/97-11/1997) worked out at 0.943 µM.

As for TRAVGKPLL, the Kd in the experiment with HLA-B*18:01 [11] (setting [21]), with HLA-B*27:05 (setting [21]), with HLA-B*58:01 (setting [21]), with HLA-A*69:01 (setting [21]), in the experiment with HLA-B*40:01 [12] and in the experiment with HLA-B*44:02 [6] (setting [21]) was no less than 20 µM each time. In addition, the Kd with HLA-A*02:01 (setting [21]), with HLA-B*07:02 (setting [21]), with HLA-A*03:01 (setting [21]), with HLA-B*46:01 [7] (setting [21]), with HLA-B*48:01 (setting [21]) and in the experiment with HLA-B*15:01 (setting [21]) was no less than 20 µM throughout. Besides, in the experiment with HLA-B*57:01 [8] (setting [21]), the Kd is no less than 20 µM.

These data come from the Immune Epitope Database (IEDB).
